Among the data in article PMC10801562 (Antibodies, 2024) are Kd values, retold here.

Residue numbers refer to the chain shown, from its start.

The chains are these.
B1: mUCHT1 mIgG1 V1+C19, homodimeric antibody with FAST-Ig V1+C19 mutations (antibody, V domains shown)
VH: EVQLQQSGPELVKPGASMKISCKASGYSFTGYTMNWVKESHGKNLEWMGLINPYKGVSTYNQKFKDKATLTVDKSSSTAYMELLSLTSEDSAVYYCARSGYYGDSDWYFDVWGQGTTLTVFS
VL: DIQMTQTTSSLSASLGDRVTISCRASQDIRNYLNWYQKKPDGTVKLLIYYTSRLHSGVPSKFSGSGSGTDYSLTISNLEQEDIATYFCQQGNTLPWTFAGGTKLEIK
notes: VH of mUCHT1; mouse IgG1 (mIgG1) heavy chain constant region; numbers count on: Eu numbering; VL of mUCHT1; mouse kappa light chain constant region (CL); numbers count on: Kabat numbering; Whole IgG of one HC and one LC; also called anti-CD3; H2L2H2L2; source: Expi293F, transiently expressed, purified (Ab-Capcher MAG2 or MonoSpin ProG); copies: 2 + 2
B2: mSP34 mIgG1 V1+C19, homodimeric antibody with FAST-Ig V1+C19 mutations (antibody, V domains shown)
VH: EVQLVESGGGLVQPKGSLKLSCAASGFTFNTYAMNWVREAPGKGLEWVARIRSKYNNYATYYADSVKDRFTISRDDSQSILYLQMNNLKTEDTAMYYCVRHGNFGNSYVSWFAYWGQGTLVTVSA
VL: QAVVTQESALTTSPGETVTLTCRSSTGAVTTSNYANWVQKKPDHLFTGLIGGTNKRAPGVPARFSGSLIGDKAALTITGAQTEDEAIYFCALWYSNLWVFGGGTKLTVL
notes: VH of mSP34; mouse IgG1 (mIgG1) heavy chain constant region; numbers count on: Eu numbering; VL (lambda) of mSP34; mouse lambda light chain constant region (CL); numbers count on: Kabat numbering; Whole IgG of one HC and one LC; also called anti-CD3; H2L2H2L2; source: Expi293F, transiently expressed, purified (Ab-Capcher MAG2 or MonoSpin ProG); copies: 2 + 2
B3: mSP34 mIgG2a, homodimeric antibody without FAST-Ig mutations (antibody, V domains shown)
VH: B2 VH with E39Q
VL: B2 VL with K40E
notes: VH of the original mouse antibody mSP34; mouse IgG2a (mIgG2a) heavy chain constant region; numbers count on: Eu numbering; VL (lambda) of the original mouse antibody mSP34; mouse lambda light chain constant region (CL); Whole IgG of one HC and one LC; also called anti-CD3; H2L2H2L2; source: Expi293F, transiently expressed, purified (Ab-Capcher MAG2, MonoSpin ProA or MonoSpin ProG); copies: 2 + 2
B4: mOKT3 mIgG1 V1+C19, homodimeric antibody with FAST-Ig V1+C19 mutations (antibody, V domains shown)
VH: not shown
VL: QIVLTQSPAIMSASPGEKVTMTCSASSSVSYMNWYQKKSGTSPKRWIYDTSKLASGVPAHFRGSGSGTSYSLTISGMEAEDAATYYCQQWSSNPFTFGSGTKLEIN
notes: VH of mOKT3; mouse IgG1 (mIgG1) heavy chain constant region; numbers count on: Eu numbering; VL of mOKT3; mouse kappa light chain constant region (CL); numbers count on: Kabat numbering; Whole IgG of one HC and one LC; also called anti-CD3; H2L2H2L2; source: Expi293F, transiently expressed, purified (Ab-Capcher MAG2 or MonoSpin ProG); copies: 2 + 2
B5: mHIT3a mIgG2a, homodimeric antibody without FAST-Ig mutations (antibody, V domains shown)
VH: QVQLQESGAELARPGASVKMSCKASGYTFTRYTMHWVKQRPGQGLEWIGYINPSRGYTNYNQKFKDKATLTTDKSSSTAYMELTRLTSEDSAVYYCARYYDDHYCLDYWGQGTTVTVSS
VL: B4 VL with Q1D, V3E, K37Q, H60R, R62S, I105L, N106K
notes: VH of the original mouse antibody mHIT3a; mouse IgG2a (mIgG2a) heavy chain constant region; numbers count on: Eu numbering; VL of the original mouse antibody mHIT3a; mouse kappa light chain constant region (CL); Whole IgG of one HC and one LC; also called anti-CD3; H2L2H2L2; source: Expi293F, transiently expressed, purified (Ab-Capcher MAG2, MonoSpin ProA or MonoSpin ProG); copies: 2 + 2
B6: mOKT3 mIgG2a V1+C19, homodimeric antibody with FAST-Ig V1+C19 mutations (antibody, V domains shown)
VH: not shown
VL: B4 VL
notes: VH of mOKT3; mouse IgG2a (mIgG2a) heavy chain constant region; numbers count on: Eu numbering; VL of mOKT3; mouse kappa light chain constant region (CL); numbers count on: Kabat numbering; Whole IgG of one HC and one LC; also called anti-CD3; H2L2H2L2; source: Expi293F, transiently expressed, purified (Ab-Capcher MAG2, MonoSpin ProA or MonoSpin ProG); copies: 2 + 2
B7: mHIT3a mIgG2a V1+C19, homodimeric antibody with FAST-Ig V1+C19 mutations (antibody, V domains shown)
VH: B5 VH with Q39E
VL: B4 VL with Q1D, V3E, H60R, R62S, I105L, N106K
notes: VH of mHIT3a; mouse IgG2a (mIgG2a) heavy chain constant region; numbers count on: Eu numbering; VL of mHIT3a; mouse kappa light chain constant region (CL); numbers count on: Kabat numbering; Whole IgG of one HC and one LC; also called anti-CD3; H2L2H2L2; source: Expi293F, transiently expressed, purified (Ab-Capcher MAG2, MonoSpin ProA or MonoSpin ProG); copies: 2 + 2
B8: mHIT3a mIgG1 V1+C19, homodimeric antibody with FAST-Ig V1+C19 mutations (antibody, V domains shown)
VH: B5 VH with Q39E
VL: B4 VL with Q1D, V3E, H60R, R62S, I105L, N106K
notes: VH of mHIT3a; mouse IgG1 (mIgG1) heavy chain constant region; numbers count on: Eu numbering; VL of mHIT3a; mouse kappa light chain constant region (CL); numbers count on: Kabat numbering; Whole IgG of one HC and one LC; also called anti-CD3; H2L2H2L2; source: Expi293F, transiently expressed, purified (Ab-Capcher MAG2 or MonoSpin ProG); copies: 2 + 2
B9: mHIT3a mIgG1, homodimeric antibody without FAST-Ig mutations (antibody, V domains shown)
VH: B5 VH
VL: B4 VL with Q1D, V3E, K37Q, H60R, R62S, I105L, N106K
notes: VH of the original mouse antibody mHIT3a; mouse IgG1 (mIgG1) heavy chain constant region; numbers count on: Eu numbering; VL of the original mouse antibody mHIT3a; mouse kappa light chain constant region (CL); Whole IgG of one HC and one LC; also called anti-CD3; H2L2H2L2; source: Expi293F, transiently expressed, purified (Ab-Capcher MAG2 or MonoSpin ProG); copies: 2 + 2
B10: m12F6 mIgG1 V1+C19, homodimeric antibody with FAST-Ig V1+C19 mutations (antibody, V domains shown)
VH: QVQLQQSGAELARPGASVKMSCKASGYTFTSYTMHWVKERPGQGLEWIGYINPSSGYTKYNQKFKDKATLTADKSSSTAYMQLSSLTSEDSAVYYCARWQDYDVYFDYWGQGTTLTVSS
VL: QIVLSQSPAILSASPGEKVTMTCRASSSVSYMHWYQKKPGSSPKPWIYATSNLASGVPARFSGSGSGTSYSLTISRVEAEDAATYYCQQWSSNPPTFGGGTKLETK
notes: VH of m12F6; mouse IgG1 (mIgG1) heavy chain constant region; numbers count on: Eu numbering; VL of m12F6; mouse kappa light chain constant region (CL); numbers count on: Kabat numbering; Whole IgG of one HC and one LC; also called anti-CD3; H2L2H2L2; source: Expi293F, transiently expressed, purified (Ab-Capcher MAG2 or MonoSpin ProG); copies: 2 + 2

The first assay deals with T1, recombinant human CD3ε-CD3δ heterodimeric protein (CD3εδ) (Homo sapiens).
T1 construct: human CD3ε of the recombinant CD3εδ heterodimer; human CD3δ of the recombinant CD3εδ heterodimer; source: in-house prepared
T1 chain 1: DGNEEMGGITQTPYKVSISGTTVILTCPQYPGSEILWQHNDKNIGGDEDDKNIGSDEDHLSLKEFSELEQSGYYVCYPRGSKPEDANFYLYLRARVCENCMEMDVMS
T1 chain 2: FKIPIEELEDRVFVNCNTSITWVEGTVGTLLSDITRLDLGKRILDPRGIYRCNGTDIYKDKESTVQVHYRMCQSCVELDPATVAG
Nature of the assay: SPR; Biacore T200, 37 °C, pH 7.4, PB-P+; antibody captured (630 RU) by anti-mouse IgG (Fc) antibody on a CM4 chip; human CD3εδ as analyte, 1.2-4800 nmol/L; 1:1 binding model (mUCHT1, mSP34). Particulars: both partners purified. (In general: SPR reads the build-up and loss of mass on a sensor chip optically.)
Take B1: the Kd (commonly the constant that tells how readily two partners part at equilibrium) is 0.00132 µM. On the same count and under the same terms, then B2, with 0.0569 µM; and B3, with 0.016 µM.

The next assay has as its target T1, recombinant human CD3ε-CD3δ …. Kind of assay: SPR; Biacore T200, 37 °C, pH 7.4, PB-P+; antibody captured (630 RU) by anti-mouse IgG (Fc) antibody on a CM4 chip; human CD3εδ as analyte, 18.8-19,200 nmol/L (mHIT3a, mOKT3) or 75-76,800 nmol/L (m12F6); steady state model. The following applies: both partners purified.
Consider B4, for which the dissociation constant (Kd) was determined as 4.48 µM. Still for that read-out and setting: then B5, with 10.4 µM; and B6, with 7.68 µM; and B7, with 10.4 µM. Still for that read-out and setting: then B8, with 8.32 µM; and B9, with 7.54 µM. On the same count and under the same terms, with B10 the figure was 16.1 µM.
